The results in this text go back to patent US11666658B2, “Rifamycin analogs and antibody-drug conjugates thereof” (Regeneron Pharmaceuticals, Inc., priority 2018, dated 2023).

The target in test [1] is T1, MSR1-mediated DiI-AcLDL uptake in HEK293.Myc.hMSR1 cells (Homo sapiens, UniProt P21757).
T1 construct: expressed in transfected cells; host or cells: HEK293 (lentiviral transduction, hygromycin selection)
T1 sequence (P21757 1-451): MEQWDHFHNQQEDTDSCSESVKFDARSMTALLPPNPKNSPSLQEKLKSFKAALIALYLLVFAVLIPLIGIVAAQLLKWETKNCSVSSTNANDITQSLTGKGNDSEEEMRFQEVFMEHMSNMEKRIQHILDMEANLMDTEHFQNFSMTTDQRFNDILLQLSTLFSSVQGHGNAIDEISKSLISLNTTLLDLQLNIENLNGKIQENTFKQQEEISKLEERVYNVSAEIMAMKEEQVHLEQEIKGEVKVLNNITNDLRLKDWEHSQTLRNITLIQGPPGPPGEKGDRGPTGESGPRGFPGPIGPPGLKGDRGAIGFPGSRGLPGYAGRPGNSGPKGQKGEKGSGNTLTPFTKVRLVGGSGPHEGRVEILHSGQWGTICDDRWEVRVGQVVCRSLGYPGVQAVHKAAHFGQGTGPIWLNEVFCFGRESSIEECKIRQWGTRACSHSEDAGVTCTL
Briefly: Ligand uptake assay, DiI-AcLDL. The class given is cell-based. To be noted: for IC50, Dil-Acetylated LDL / % Inhibition, Dil-Acetylated LDL: 10 μg/mL DiI-AcLDL; for % Inhibition, Dil-Acetylated LDL: maximum inhibition of uptake. The protocol: The resulting cell line, referred to here as “HEK293.Myc.hMSR1”, was selected and maintained in DMEM containing 10% FBS, NEAA, penicillin/streptomycin, L-glutamine, and 100 μg/mL hygromycin.
After 30 minutes, either oxidized or acetylated low-density lipoprotein (LDL) labeled with 1,1′ dioctadecyl-3,3,3′,3′-tetramethylindocarbocyanine perchlorate (referred to as “DiI-OxLDL” or “DiI-AcLDL,” respectively) was added to the cells at a constant concentration of 10 μg/mL. […] Results were analyzed using nonlinear regression (4-parameter logistics) with the Prism 7 program to obtain EC50 and IC50 values. The percentage of inhibition was calculated with the Relative Fluorescent Unit (RFU) values by using the following equation: […]
In the equation, “RFUBaseline” is the fluorescence value from the cells treated with 10 μg/mL ligand without antibodies, “RFUInhibition” is the minimum fluorescence value with for a particular antibody with 10 μg/mL ligand, and “RFUBackground” is the fluorescence value from cells without any ligand or antibodies.

For test [2], the target named is T2, biot-AGE-BSA binding to His9-hMSR1 (Homo sapiens, UniProt P21757).
T2 construct: human MSR1 extracellular domain expressed with a N-terminal nonahistidine tag; purchased R&D Systems 2708-MS
T2 sequence (P21757 77-451 limits assumed): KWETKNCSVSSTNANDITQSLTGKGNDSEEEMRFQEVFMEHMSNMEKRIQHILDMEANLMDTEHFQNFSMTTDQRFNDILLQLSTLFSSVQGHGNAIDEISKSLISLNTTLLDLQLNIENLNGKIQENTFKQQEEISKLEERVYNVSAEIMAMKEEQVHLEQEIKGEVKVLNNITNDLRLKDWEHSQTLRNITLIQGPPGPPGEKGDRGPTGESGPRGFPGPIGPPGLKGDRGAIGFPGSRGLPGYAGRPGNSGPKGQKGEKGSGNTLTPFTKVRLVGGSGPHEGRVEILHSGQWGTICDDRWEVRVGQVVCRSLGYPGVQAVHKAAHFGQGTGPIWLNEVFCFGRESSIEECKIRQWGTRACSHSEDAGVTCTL
Briefly: Competition sandwich ELISA, biot-AGE-BSA. The settings on record: anti-MSR1 antibody 300 nM, 400 pM biot-AGE-BSA. The protocol: (§1) The ability of anti-MSR1 antibodies disclosed herein to block the binding of various ligands to human MSR1 was measured using three competition sandwich ELISA assays. The ligands used in the assays were: (1) acetylated LDL (Ac-LDL), (2) oxidized LDL (Ox-LDL), and (3) advanced glycation end-products of bovine serum albumin (AGE-BSA).
For the assay, recombinant monomeric human MSR1 protein comprised of a portion of the human MSR1 extracellular domain expressed with a N-terminal 9-Histidine tag (SEQ ID NO: 688) (His9-hMSR1; R&D Systems, Cat #2708-MS) was coated at a concentration of […] in PBS on a 96-well microtiter plate overnight at 4° C. for use in competition ELISA assays with Ac-LDL, Ox-LDL, or biotinylated-AGE-BSA (“biot-AGE-BSA”). […] Anti-MSR1 antibodies or isotype control antibodies were serially diluted as appropriate for each tested ligand and added in duplicate for each serial dilution set to microtiter plates coated with His9-hMSR1. Buffer alone was also added to wells on each coat. After 1 hour incubation at room temperature, without wash, a final constant concentration of 50 pM Ac-LDL (Life Technologies/ThermoFisher Scientific, Cat #L-35354), 5 nM or 10 nM Ox-LDL (Alfa Aesar, Cat #J65591), or 400 pM biot-AGE-BSA (R&D Systems, Cat #BT4127) were added to plates with His9-hMSR1, and the plates were incubated for an additional 1 hour at room temperature. (Concentrations of Ac-LDL, Ox-LDL and biot-AGE-BSA for antibody inhibition assays were selected from the approximate midway point within the linear portion of individual binding curves of Ac-LDL, Ox-LDL or biot-AGE-BSA to plate-coated His9-hMSR1.) Wells were washed, and plate-bound Ac-LDL or Ox-LDL were detected with anti-LDL rabbit antibody (Alfa Aesar, Cat #J64398) in combination with anti-rabbit IgG (H+L) specific donkey polyclonal antibodies conjugated with horseradish peroxidase (HRP) (JacksonImmunoResearch, Cat #711-035-152) and biot-AGE-BSA was detected with a streptavidin-HRP (ThermoFisher Scientific, Cat #N200). Plates were developed using TMB substrate solution (BD Biosciences, Cat #51-2606KC & Cat #51-2607KC) according to manufacturer's recommendation and absorbance at 450 nm was measured on a Victor™ Multilabel Plate Reader (PerkinElmer™). This assay was conducted in four different assay runs.
(§2) Data analysis was performed using a sigmoidal dose-response model within Prism™ software (GraphPad). Percent blockade at maximum concentration of the antibody tested in each assay was calculated as an indicator of the ability of the antibodies to block the binding of Ac-LDL, Ox-LDL or biot-AGE-BSA to His9-hMSR1 on the plate relative to the baseline of the assay. In the calculation, binding signal of the same concentrations of Ac-LDL, Ox-LDL, or biot-AGE-BSA used for the assays in the absence of antibody was referenced as 100% binding or 0% blocking, while the baseline of the assay, defined as binding signal of the sample of buffer without MSR1 ligands or antibody, was referenced as 0% binding or 100% blocking. The maximum percent blockade at the highest concentration of antibody tested in each assay are reported for all antibodies. Negative percent blockade numbers reflected higher MSR1 ligands binding to plate coated His9-hMSR1 in the presence of antibodies.
In general terms: In an ELISA, binding on a coated surface is turned into a signal by an enzyme label.

Test [3] concerns the target T3, Ox-LDL binding to His9-hMSR1 (Homo sapiens, UniProt P21757).
T3 construct: human MSR1 extracellular domain expressed with a N-terminal nonahistidine tag; purchased R&D Systems 2708-MS
T3 sequence (P21757 77-451 limits assumed): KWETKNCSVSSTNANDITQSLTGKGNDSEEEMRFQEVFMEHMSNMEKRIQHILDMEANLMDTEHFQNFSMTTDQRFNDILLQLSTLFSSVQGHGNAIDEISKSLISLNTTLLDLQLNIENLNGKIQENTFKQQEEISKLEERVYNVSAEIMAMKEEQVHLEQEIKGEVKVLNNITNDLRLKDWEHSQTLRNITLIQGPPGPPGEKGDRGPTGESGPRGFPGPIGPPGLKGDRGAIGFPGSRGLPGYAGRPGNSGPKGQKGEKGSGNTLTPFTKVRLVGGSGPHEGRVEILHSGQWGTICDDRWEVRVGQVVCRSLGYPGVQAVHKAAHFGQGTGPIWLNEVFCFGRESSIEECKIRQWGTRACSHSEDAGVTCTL
The test is described as follows: Competition sandwich ELISA, Ox-LDL. To be noted: anti-MSR1 antibody 500 nM, Ox-LDL 10 nM. The method, then: as §1
(§3) Anti-MSR1 antibodies or isotype control antibodies were serially diluted as appropriate for each tested ligand and added in duplicate for each serial dilution set to microtiter plates coated with His9-hMSR1. Buffer alone was also added to wells on each coat. […] This assay was conducted in four different assay runs.
as §2, with “antibodies.” for “antibodies. Negative percent blockade numbers reflected higher MSR1 ligands binding to plate coated His9-hMSR1 in the presence of antibodies.”

Test [4] addresses T4, Ac-LDL binding to His9-hMSR1 (Homo sapiens, UniProt P21757).
T4 construct: human MSR1 extracellular domain expressed with a N-terminal nonahistidine tag; purchased R&D Systems 2708-MS
T4 sequence (P21757 77-451 limits assumed): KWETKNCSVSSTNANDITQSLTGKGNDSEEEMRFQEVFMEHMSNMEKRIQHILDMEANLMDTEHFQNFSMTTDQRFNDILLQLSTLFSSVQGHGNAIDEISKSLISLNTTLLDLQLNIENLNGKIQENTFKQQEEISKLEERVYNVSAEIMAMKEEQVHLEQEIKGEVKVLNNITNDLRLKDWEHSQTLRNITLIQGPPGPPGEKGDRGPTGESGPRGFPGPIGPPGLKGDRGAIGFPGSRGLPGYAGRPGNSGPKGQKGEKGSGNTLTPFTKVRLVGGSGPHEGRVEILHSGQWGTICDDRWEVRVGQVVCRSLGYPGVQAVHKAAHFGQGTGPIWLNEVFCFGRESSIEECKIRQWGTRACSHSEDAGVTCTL
The test is described as follows: Competition sandwich ELISA, Ac-LDL. To be noted: anti-MSR1 antibody 100 nM, 50 pM Ac-LDL. The method, then: as §1, §3
as §2, with “antibodies.” for “antibodies. Negative percent blockade numbers reflected higher MSR1 ligands binding to plate coated His9-hMSR1 in the presence of antibodies.”

B1: H1H27739P-N297Q: anti-MSR1 antibody; "antibodies H1H27739P-N297Q and H1H27734P-N297Q showed no inhibition of DiI-AcLDL uptake" (antibody, V domains shown)
VH: EVQLVESGGGLVQPGGSLRLSCTASGFTFSSYAMSWVRQAPGKGLEWVSAISGTGSSTYFTDSVKGRFAISRDNSKNTLYLQMNSLRAEDTAVYYCAKDGEWLSTVTLFDYWGQGTLVTVSS
VL: EIVMTQSPATLSVSPGERATLSCRASQSVSSNLAWYQQKPGQAPRLLIYGASTRATGIPARFSGSGSGTDFTLTISSLQSEDFALYYCQQYFIWPPHPTFGPGTKVDIKR
B1: in test [1], the “inhibition of DiI-AcLDL uptake (in words)” value (“inhibition … (in words)” below) is listed as “no inhibition of DiI-AcLDL uptake”; the “IC50, Dil-Acetylated LDL” value is on record as “no inhibition”; the “% Inhibition, Dil-Acetylated LDL” value is “no inhibition”.

B2: H1H21227N-N297D: "The 21227N antibody was also produced as a third version with a N297D mutation" (antibody, V domains shown)
VH: QVQLVQSGAEVKKPGASVKVSCKVSGYTLTELSIHWVRQVPGKGLEWMGGFDPEEGETIFAQEFRDRVTLTEDTSPDTAYMELSSLKSEDAAVYYCTTPRYCNNGICYDYWGQGTLVTVSS
VL: DIQMTQSPSSLSASVGDRVTITCRASQSISNYLNWYQQKPGKAPKLLIYTASSLQSGVPSRFSGSGSGTDFTLTISSLQTEDFATYYCQQSYSNFPITFGQGTRLEIKR
As to B2, in test [2], the “% Blocking of biot-AGE-BSA binding to His9-hMSR1” value was determined as 97%. Also, the “% Blocking of Ox-LDL binding to His9-hMSR1” value in test [3] came out at 99%. For the same molecule, the “% Blocking of Ac-LDL binding to His9-hMSR1” value in test [4] was determined as 101%.

B3: H1H21231N-N297Q: modified version of "21231N (H1H21231N-N297Q) anti-MSR1 antibodies" with "a N297Q single point mutation" (antibody, V domains shown)
VH: EVQLVESGGGLVQPGGSLRLSCAASGFTFSDHYMDWVRQAPGKGLEWVGRTRNKANSHTTEYTASVTGRFTISRDDSRNSLYLQMNSLKTEDTAVYYCVRAGIIGTLFDYWGQGTLVTVSS
VL: DIQMTQFPSSLSASVGDRVTITCRASQSISSFLNWFQQKPGKAPKFLIYAASSLQSGVPSRFSGSGSGTDFTLTISSLQPEDFATYYCQQSYSSPPITFGQGTRLEIKR
Turning to B3, the “% Blocking of biot-AGE-BSA binding to His9-hMSR1” value in test [2] is on record as −50%. For the same molecule, in test [3], the “% Blocking of Ox-LDL binding to His9-hMSR1” value is 26%. Also, the “% Blocking of Ac-LDL binding to His9-hMSR1” value in test [4] is reported as −60%.

B4: H2aM21229N: one of "Twelve anti-MSR1 antibodies"; "an 'H2aM' antibody has a mouse IgG2a Fc" (antibody, V domains shown)
VH: EVQLVESGGGLVKPGGSLRLSCAASGFTFSRYSMNWVRQAPGKGLEWVSSISSSSSYIYYGDTVKGRFTISRDNAKKSLYLQMNSLRAEDTAVYYCVRDRGQLVLYFDYWGQGTLVTVSS
VL: DIQMTQSPASLSTSIRDRVTITCRASLSISSFLNWFQQRPGKAPKLLIYVASNLQSGVPSRFSDSGSGTDFTLTISSLQPEDFATYYCQQNYSTPPITFGQGTRLEIK
Regarding B4, in test [1], the “inhibition … (in words)” value is on record as “no inhibition of DiI-AcLDL uptake”; the “IC50, Dil-Acetylated LDL” value was “no inhibition”; the “% Inhibition, Dil-Acetylated LDL” value was “no inhibition”.

B5: H1H27734P-N297Q: one of "Twelve anti-MSR1 antibodies" that "bound to parental HEK293 cells"; human IgG1 Fc with N297Q mutation (antibody, V domains shown)
VH: EVQLVESRGGLVQPGGSLRLSCAASGFTFSSYAMSWVRQAPGKGLEWVSAISGSGGSTFYADSVKGRFTISRDNSKNTVYLQMNSLRAEDTAVYYCAKALVLRFLEWLGDYWGQGTLVTVSS
VL: DIQMTQSPSTLSASVGDRVTITCRASQSISSWLAWFQQKPGKAPKLLIYKASSLESGVPSRFSGSGSGTEFTLTISSLQPDDFATYYCQQYKSYWTFGQGTKVEIKR
Turning to B5, in test [1], the “inhibition … (in words)” value is given as “no inhibition of DiI-AcLDL uptake”; the “IC50, Dil-Acetylated LDL” value was “no inhibition”; the “% Inhibition, Dil-Acetylated LDL” value is on record as “no inhibition”.
